{"source": "patent US20230391852A1", "about": "(US Dept. of Health and Human Services, published 2023)", "binders": {"B1": {"name": "8A4 VHH-hFc (Fc fusion)", "chain": "EVQLVESGGGLVQPGESLRLSCEASGFTFSSVYMSWVRQAPGKGLEWISTIHPAGGSTYYADSMKDRFTISRDNAKNTLYLQMNSLKSEDTALYYCIIEALSGYRGPGTQVTVSS", "notes": "also called 8A4-hFc; NCI-CoV-8A4 VHH-hFc fusion protein"}, "B2": {"name": "7A3 VHH-hFc (Fc fusion)", "chain": "QVQLVESGGGSVQPGGSLRLSCVVSGYTSSSRYMGWFRQVPGKGLEWVSGIKRDGTNTYYADSVKGRFTISQDNAKNTVYLQMNSLKPEDTAMYYCAAGSWYNQWGYSMDYWGKGTQVTVSS", "notes": "also called 7A3-hFc; NCI-CoV-7A3 VHH-hFc fusion protein"}, "B3": {"name": "1B5 VHH-hFc (Fc fusion)", "chain": "DVQLVESGGGSVQAGGSLRLSCTGSRYTYSTYCMGWFRQAPGKEEEAVAIINSGGGEPYYGDSVKGRFTISQDRAKNTVYLQMDGLQPDDTAIYYCVAADSHNSRCYLGRSYVNYWGQGTQVTVSS", "notes": "also called 1B5-hFc; NCI-CoV-1B5 VHH-hFc fusion protein"}, "B4": {"name": "8A2 VHH-hFc (Fc fusion)", "chain": "AVQLVDSGGGSVQAGGSLRLSCAASGYTYSICTMGWYRQAPGEGLEWVSGINADGSNTHYTDSVKGRFTISRDNAKKTLYLQMNSLKPEDTAIYYCAAHGTYDKYAPCGGFAGTYTYWGQGTQVTVSS", "notes": "also called NCI-CoV-8A2 VHH-hFc"}, "B5": {"name": "2F7 VHH-hFc (Fc fusion)", "chain": "QVKLEESGGGSVQSGGSLRLSCTVSRDTNTNINRCMGWFRQAPGKGLETVATINRDGTNTYYTDAVKGRFTISQDNVKNTVYLQMNNLTPEDTGTYICNAMGRGSGSRCDNWDPNYWGQGTQVTVSS", "notes": "also called 2F7-hFc; NCI-CoV-2F7 VHH-hFc fusion protein"}, "B6": {"name": "1H6 VHH-hFc (Fc fusion)", "chain": "AVQLVDSGGGSVQAGGSLNLSCVASGTTLRNGCMAWFRQVPGKEREVVAIIIRATSYTDYADSVKGRFTISQDNAKNTVYLQMKSLTPEDTATYYCAATLYRVNCAKREFDKWGQGTQVTVSS", "notes": "also called 1H6-hFc; NCI-CoV-1H6 VHH-hFc fusion protein"}}, "molecular_target": "SARS-CoV-2 S protein trimer expressed on human A431 cells (SARS-CoV-2, UniProt P0DTC2 14-1273)", "assay": "flow cytometry on A431 cells expressing SARS-CoV-2 S (A431-CoV-2-S)", "data": [{"binder": "B1", "values": [{"measurement": "percent of cells right of the dashed gate line", "value": 99.4, "unit": "%"}]}, {"binder": "B2", "values": [{"measurement": "percent of cells right of the dashed gate line", "value": 99.5, "unit": "%"}]}, {"binder": "B3", "values": [{"measurement": "percent of cells right of the dashed gate line", "value": 99.1, "unit": "%"}]}, {"binder": "B4", "values": [{"measurement": "percent of cells right of the dashed gate line", "value": 98.7, "unit": "%"}]}, {"binder": "B5", "values": [{"measurement": "percent of cells right of the dashed gate line", "value": 99.3, "unit": "%"}]}, {"binder": "B6", "values": [{"measurement": "percent of cells right of the dashed gate line", "value": 99.5, "unit": "%"}]}]}
